# PMC9529537 (The Innovation, 2022)
# B1: YD6 human monoclonal antibody, full-length IgG1 (antibody, V domains shown)
# VH: EVQLVESGGGLVKPGGSLRLSCAASGFIFSDYYMMWIRQAPGKGLEWISYISSSGSQIYYTESVKGRFTISRDNGKNLLYLQMNSLRGEDTALYYCATETGWRIDTWGQGTLVTVSS
# VL: QAVLTQPASVSGSPGQSITISCTGTGSNIETYNLVSWYQRHPGKAPKLILYEVSERPSGVSNRFSGSKSGNTASLTISGLQAEDEADYFCCSYADTNIFWVFGGGTHLTVL
# B2: YD73 human monoclonal antibody, full-length IgG1 (antibody, V domains shown)
# VH: QVQLVQSGAEVKKPGASVKVSCKASGYTFIAYGISWVRQAPGQGLEWMGWISAHNGNTNYAQKFQGRVTVTTDTTTRTAFMELRNLRSDDTAVYYCARAPWEYNYRSSGYYDSPYWGQGTLVTVSS
# VL: EIVLTQSPGTLSLSPGERATLSCRASQSVVSTYLAWYQQKPGQAPRLLIYDTSTRATGIPDRFSGSGSGTDFTLTISRLEPEDFAVYYCQHYDSSPPWTFGQGTKVEIK
# Biological target: E protein on YFV virions (Yellow fever virus, strain of the …)
# Test: flow cytometry on cells
row,Binder,binding result
1,B1,binds
2,B2,binds
